The supplement of paper PMC9112550, “Optimization of the antimicrobial peptide Bac7 by deep mutational scanning” (BMC Biology, 2022)

What follows are sequences tested on Escherichia coli TOP10 (assay: shrunken log2 fold change of peptide-encoding DNA abundance (4.5 h post-induction vs induction); higher = less antimicrobial activity (less host growth inhibition)). Conditions: time post-induction: 4.5 h; library: site-saturation at positions 5, 18, 19, 20.
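Further: peptides expressed intracellularly from a pBAD plasmid library in pooled LB shake-flask culture, induced with 0.3% L-arabinose, DNA abundance read by NGS, three biological replicates, DESeq2 with apeglm shrinkage.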

Sequence | shrunken log2 fold change
RRIRFRPPRLPRPRPRPHKSPRP | -0.396
RRIRFRPPRLPRPRPRPHLHPRP | -0.511
RRIRFRPPRLPRPRPRPHLIPRP | -0.415
RRIRFRPPRLPRPRPRPHMHPRP | -0.655
RRIRFRPPRLPRPRPRPHMTPRP | -0.186
RRIRFRPPRLPRPRPRPHNFPRP | -0.399
RRIRFRPPRLPRPRPRPHPEPRP | -0.00858
RRIRFRPPRLPRPRPRPHQWPRP | -0.0612
RRIRFRPPRLPRPRPRPHRHPRP | -0.333
RRIRFRPPRLPRPRPRPHRIPRP | -0.526
RRIRFRPPRLPRPRPRPHRYPRP | -0.402
RRIRFRPPRLPRPRPRPHSCPRP | -0.249
RRIRFRPPRLPRPRPRPHTKPRP | -0.0159
RRIRFRPPRLPRPRPRPHTMPRP | -0.459
RRIRFRPPRLPRPRPRPHVFPRP | -0.136
RRIRFRPPRLPRPRPRPIAFPRP | 0.0375
RRIRFRPPRLPRPRPRPIARPRP | 0.00909
RRIRFRPPRLPRPRPRPICHPRP | -0.351
RRIRFRPPRLPRPRPRPICKPRP | -0.0703
RRIRFRPPRLPRPRPRPICLPRP | -0.548
RRIRFRPPRLPRPRPRPIFKPRP | -0.153
RRIRFRPPRLPRPRPRPIGCPRP | -0.111
RRIRFRPPRLPRPRPRPIHRPRP | -0.0271
RRIRFRPPRLPRPRPRPILDPRP | -0.0134
RRIRFRPPRLPRPRPRPINKPRP | -0.582

Sequence | shrunken log2 fold change
RRIRFRPPRLPRPRPRPIQDPRP | -0.025
RRIRFRPPRLPRPRPRPIQMPRP | -0.0945
RRIRFRPPRLPRPRPRPIVHPRP | -0.581
RRIRFRPPRLPRPRPRPKATPRP | -0.061
RRIRFRPPRLPRPRPRPKCMPRP | -0.967
RRIRFRPPRLPRPRPRPKDCPRP | 0.104
RRIRFRPPRLPRPRPRPKDDPRP | -0.052
RRIRFRPPRLPRPRPRPKDFPRP | -0.158
RRIRFRPPRLPRPRPRPKDNPRP | -0.000409
RRIRFRPPRLPRPRPRPKESPRP | -0.0731
RRIRFRPPRLPRPRPRPKGMPRP | -0.243
RRIRFRPPRLPRPRPRPKKWPRP | 0.187
RRIRFRPPRLPRPRPRPKMMPRP | -0.147
RRIRFRPPRLPRPRPRPKMTPRP | -0.173
RRIRFRPPRLPRPRPRPKMVPRP | -0.0413
RRIRFRPPRLPRPRPRPKQGPRP | -0.00975
RRIRFRPPRLPRPRPRPKSEPRP | -0.213
RRIRFRPPRLPRPRPRPKTEPRP | 0.0656
RRIRFRPPRLPRPRPRPKVHPRP | 0.146
RRIRFRPPRLPRPRPRPKVKPRP | 0.0668
RRIRFRPPRLPRPRPRPKYDPRP | -0.606
RRIRFRPPRLPRPRPRPKYKPRP | -0.63
RRIRFRPPRLPRPRPRPKYYPRP | -0.386
RRIRFRPPRLPRPRPRPLALPRP | -0.0762
RRIRFRPPRLPRPRPRPLCSPRP | -0.566

Sequence | shrunken log2 fold change
RRIRFRPPRLPRPRPRPLDWPRP | -0.119
RRIRFRPPRLPRPRPRPLFEPRP | -0.0359
RRIRFRPPRLPRPRPRPLGCPRP | 0.121
RRIRFRPPRLPRPRPRPLGNPRP | -0.215
RRIRFRPPRLPRPRPRPLHAPRP | 0.0292
RRIRFRPPRLPRPRPRPLHCPRP | 0.0254
RRIRFRPPRLPRPRPRPLHIPRP | -0.7
RRIRFRPPRLPRPRPRPLINPRP | -0.421
RRIRFRPPRLPRPRPRPLKIPRP | -0.24
RRIRFRPPRLPRPRPRPLKQPRP | 0.053
RRIRFRPPRLPRPRPRPLKVPRP | -0.112
RRIRFRPPRLPRPRPRPLMGPRP | -0.18
RRIRFRPPRLPRPRPRPLNTPRP | -0.483
RRIRFRPPRLPRPRPRPLPLPRP | 0.0222
RRIRFRPPRLPRPRPRPLQAPRP | 0.285
RRIRFRPPRLPRPRPRPLREPRP | 0.618
RRIRFRPPRLPRPRPRPLSPPRP | -0.476
RRIRFRPPRLPRPRPRPLTEPRP | -0.331
RRIRFRPPRLPRPRPRPLWHPRP | -0.248
RRIRFRPPRLPRPRPRPMAFPRP | -0.126
RRIRFRPPRLPRPRPRPMALPRP | -0.706
RRIRFRPPRLPRPRPRPMCLPRP | -0.564
RRIRFRPPRLPRPRPRPMCRPRP | -0.218
RRIRFRPPRLPRPRPRPMDCPRP | 0.00893
RRIRFRPPRLPRPRPRPMDDPRP | -0.182

Sequence | shrunken log2 fold change
RRIRFRPPRLPRPRPRPMDEPRP | 0.0137
RRIRFRPPRLPRPRPRPMDRPRP | 0.0616
RRIRFRPPRLPRPRPRPMEDPRP | -0.015
RRIRFRPPRLPRPRPRPMESPRP | 0.0556
RRIRFRPPRLPRPRPRPMFHPRP | -0.473
RRIRFRPPRLPRPRPRPMFLPRP | -0.712
RRIRFRPPRLPRPRPRPMFVPRP | 0.109
RRIRFRPPRLPRPRPRPMGAPRP | -0.0556
RRIRFRPPRLPRPRPRPMGDPRP | -0.0467
RRIRFRPPRLPRPRPRPMIEPRP | 0.0675
RRIRFRPPRLPRPRPRPMIPPRP | 0.00508
RRIRFRPPRLPRPRPRPMKMPRP | -0.0224
RRIRFRPPRLPRPRPRPMKQPRP | -0.0442
RRIRFRPPRLPRPRPRPMLEPRP | 0.147
RRIRFRPPRLPRPRPRPMLNPRP | -0.574
RRIRFRPPRLPRPRPRPMMGPRP | -0.0671
RRIRFRPPRLPRPRPRPMNHPRP | -0.327
RRIRFRPPRLPRPRPRPMNNPRP | -0.501
RRIRFRPPRLPRPRPRPMPFPRP | -0.0201
RRIRFRPPRLPRPRPRPMQWPRP | -0.113
RRIRFRPPRLPRPRPRPMTEPRP | -0.0907
RRIRFRPPRLPRPRPRPMVCPRP | -0.0374
RRIRFRPPRLPRPRPRPMVRPRP | 0.0406
RRIRFRPPRLPRPRPRPNACPRP | -0.18
RRIRFRPPRLPRPRPRPNDVPRP | 0.0386

Sequence | shrunken log2 fold change
RRIRFRPPRLPRPRPRPNEYPRP | -0.16
RRIRFRPPRLPRPRPRPNFDPRP | -0.181
RRIRFRPPRLPRPRPRPNHAPRP | 0.0222
RRIRFRPPRLPRPRPRPNIAPRP | -0.255
RRIRFRPPRLPRPRPRPNIFPRP | -0.229
RRIRFRPPRLPRPRPRPNIHPRP | -0.814
RRIRFRPPRLPRPRPRPNIVPRP | -0.199
RRIRFRPPRLPRPRPRPNMKPRP | 0.234
RRIRFRPPRLPRPRPRPNNNPRP | -0.714
RRIRFRPPRLPRPRPRPNPIPRP | -0.423
RRIRFRPPRLPRPRPRPNQMPRP | -0.167
RRIRFRPPRLPRPRPRPNRVPRP | -0.0261
RRIRFRPPRLPRPRPRPNSAPRP | -0.603
RRIRFRPPRLPRPRPRPNTMPRP | -0.648
RRIRFRPPRLPRPRPRPNTRPRP | -0.39
RRIRFRPPRLPRPRPRPNVEPRP | 0.0199
RRIRFRPPRLPRPRPRPNVNPRP | -0.375
RRIRFRPPRLPRPRPRPNWPPRP | 0.333
RRIRFRPPRLPRPRPRPNYHPRP | -0.758
RRIRFRPPRLPRPRPRPPCRPRP | 0.172
RRIRFRPPRLPRPRPRPPDYPRP | -0.026
RRIRFRPPRLPRPRPRPPEGPRP | 0.996
RRIRFRPPRLPRPRPRPPELPRP | 0.106
RRIRFRPPRLPRPRPRPPFHPRP | -0.231
RRIRFRPPRLPRPRPRPPGCPRP | 0.453

Sequence | shrunken log2 fold change
RRIRFRPPRLPRPRPRPPGIPRP | 0.151
RRIRFRPPRLPRPRPRPPGNPRP | 0.0667
RRIRFRPPRLPRPRPRPPICPRP | 0.172
RRIRFRPPRLPRPRPRPPISPRP | -0.239
RRIRFRPPRLPRPRPRPPIYPRP | -0.416
RRIRFRPPRLPRPRPRPPLLPRP | -0.0704
RRIRFRPPRLPRPRPRPPLYPRP | -0.0579
RRIRFRPPRLPRPRPRPPMCPRP | -0.0102
RRIRFRPPRLPRPRPRPPMLPRP | 0.638
RRIRFRPPRLPRPRPRPPNFPRP | -0.22
RRIRFRPPRLPRPRPRPPNLPRP | -0.0642
RRIRFRPPRLPRPRPRPPPTPRP | 1.39
RRIRFRPPRLPRPRPRPPRIPRP | 0.232
RRIRFRPPRLPRPRPRPPRLPRP | 0.399
RRIRFRPPRLPRPRPRPPRVPRP | 0.605
RRIRFRPPRLPRPRPRPPSDPRP | 0.201
RRIRFRPPRLPRPRPRPPTHPRP | 0.22
RRIRFRPPRLPRPRPRPPWIPRP | 0.3
RRIRFRPPRLPRPRPRPPWPPRP | 0.564
RRIRFRPPRLPRPRPRPPYQPRP | -0.125
RRIRFRPPRLPRPRPRPQCKPRP | -0.422
RRIRFRPPRLPRPRPRPQEHPRP | -0.115
RRIRFRPPRLPRPRPRPQEPPRP | 0.436
RRIRFRPPRLPRPRPRPQETPRP | -0.0613
RRIRFRPPRLPRPRPRPQHFPRP | 0.205
